Test results reported in PMC10103940.

Target: yNup100FG (yeast) (UniProt Q02629)
Assay: high-speed atomic force microscopy

UniProt Q02629, sequence (Q02629 whole entry): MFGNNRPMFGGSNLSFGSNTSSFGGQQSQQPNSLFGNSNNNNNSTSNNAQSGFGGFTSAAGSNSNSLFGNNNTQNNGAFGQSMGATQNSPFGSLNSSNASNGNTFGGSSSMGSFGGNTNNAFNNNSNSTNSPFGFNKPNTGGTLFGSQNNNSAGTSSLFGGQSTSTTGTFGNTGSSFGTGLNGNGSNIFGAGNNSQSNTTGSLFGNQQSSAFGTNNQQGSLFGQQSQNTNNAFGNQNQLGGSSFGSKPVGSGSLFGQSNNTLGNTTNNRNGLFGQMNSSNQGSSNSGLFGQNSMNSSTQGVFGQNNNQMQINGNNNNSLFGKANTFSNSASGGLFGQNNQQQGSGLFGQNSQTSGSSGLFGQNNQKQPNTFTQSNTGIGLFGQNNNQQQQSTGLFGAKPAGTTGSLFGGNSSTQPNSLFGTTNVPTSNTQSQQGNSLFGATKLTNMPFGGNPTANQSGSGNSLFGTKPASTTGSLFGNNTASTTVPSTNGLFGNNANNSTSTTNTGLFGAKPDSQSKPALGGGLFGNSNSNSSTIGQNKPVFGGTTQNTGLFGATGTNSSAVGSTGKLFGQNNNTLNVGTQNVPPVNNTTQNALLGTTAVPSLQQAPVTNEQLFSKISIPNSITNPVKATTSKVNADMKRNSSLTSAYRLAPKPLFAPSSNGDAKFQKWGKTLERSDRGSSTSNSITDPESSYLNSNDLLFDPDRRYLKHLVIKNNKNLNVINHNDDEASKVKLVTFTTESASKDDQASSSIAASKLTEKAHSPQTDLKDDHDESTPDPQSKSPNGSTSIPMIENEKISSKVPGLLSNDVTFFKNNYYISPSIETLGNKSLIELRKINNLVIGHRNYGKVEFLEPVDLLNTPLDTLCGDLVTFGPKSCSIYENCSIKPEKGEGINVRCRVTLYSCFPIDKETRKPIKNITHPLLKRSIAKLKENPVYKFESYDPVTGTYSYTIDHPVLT

height increase of the hydrogel due to Kap95 binding: 31.2 nm
Substance: Yeast Kap95 (recombinant) (from UniProt Q06142 1-861) (natural protein)
